Measured values reported in paper PMC2794155.
Positions count from the first letter of the chain named. Read-outs that look alike come from different tables or passages of the source.

B1: 50-mer T:A homoduplex (dsDNA)
DNA 1: CTCATTCAGCATAACTTGATTTCTTTCAGCAGATAGAAACCATACTGATT
DNA 2: AATCAGTATGGTTTCTATCTGCTGAAAGAAATCAAGTTATGCTGAATGAG
B2: 50-mer T:G heteroduplex (dsDNA)
DNA 1: B1 DNA 1
DNA 2: B1 DNA 2 with A27G
B3: 37-mer G:C homoduplex (A/T in figures) (dsDNA)
DNA 1: ATTTCCTTCAGCAGATAGGAACCATACTGATTCACAT
DNA 2: ATGTGAATCAGTATGGTTCCTATCTGCTGAAGGAAAT
B4: 37-mer G:T heteroduplex (dsDNA)
DNA 1: B3 DNA 1
DNA 2: B3 DNA 2 with C19T

Columns and labels:
MSH2;MSH6 F337A = MSH2;MSH6 F337A (Saccharomyces cerevisiae;Saccharomyces …, UniProt P25847;Q03834 1-964;1-1242, |F337A); experiment: EMSA
NHP6A [1] = target: T1, NHP6A (Saccharomyces cerevisiae RKY3032, UniProt P11632 1-93); experiment: EMSA
MSH2;MSH6 [2] = target: T2, MSH2;MSH6 (Saccharomyces cerevisiae;Saccharomyces …, UniProt P25847;Q03834 1-964;1-1242, |); experiment: EMSA
NHP6A;MSH2;MSH6 = NHP6A;MSH2;MSH6 (Saccharomyces cerevisiae …, UniProt P11632;P25847;Q03834 1-93;1-964;1-1242, ||); experiment: EMSA supershift
MSH2;MSH6 [3] = target: T2, MSH2;MSH6; experiment: EMSA; remark: listed apart in the source
NHP6A [4] = target: T1, NHP6A; experiment: EMSA; remark: listed apart in the source

T1 sequence (P11632 whole entry): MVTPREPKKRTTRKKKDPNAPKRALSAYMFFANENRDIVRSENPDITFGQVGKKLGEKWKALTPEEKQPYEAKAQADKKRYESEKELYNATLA
T2 sequence (P25847 whole entry, chain 1 of 2): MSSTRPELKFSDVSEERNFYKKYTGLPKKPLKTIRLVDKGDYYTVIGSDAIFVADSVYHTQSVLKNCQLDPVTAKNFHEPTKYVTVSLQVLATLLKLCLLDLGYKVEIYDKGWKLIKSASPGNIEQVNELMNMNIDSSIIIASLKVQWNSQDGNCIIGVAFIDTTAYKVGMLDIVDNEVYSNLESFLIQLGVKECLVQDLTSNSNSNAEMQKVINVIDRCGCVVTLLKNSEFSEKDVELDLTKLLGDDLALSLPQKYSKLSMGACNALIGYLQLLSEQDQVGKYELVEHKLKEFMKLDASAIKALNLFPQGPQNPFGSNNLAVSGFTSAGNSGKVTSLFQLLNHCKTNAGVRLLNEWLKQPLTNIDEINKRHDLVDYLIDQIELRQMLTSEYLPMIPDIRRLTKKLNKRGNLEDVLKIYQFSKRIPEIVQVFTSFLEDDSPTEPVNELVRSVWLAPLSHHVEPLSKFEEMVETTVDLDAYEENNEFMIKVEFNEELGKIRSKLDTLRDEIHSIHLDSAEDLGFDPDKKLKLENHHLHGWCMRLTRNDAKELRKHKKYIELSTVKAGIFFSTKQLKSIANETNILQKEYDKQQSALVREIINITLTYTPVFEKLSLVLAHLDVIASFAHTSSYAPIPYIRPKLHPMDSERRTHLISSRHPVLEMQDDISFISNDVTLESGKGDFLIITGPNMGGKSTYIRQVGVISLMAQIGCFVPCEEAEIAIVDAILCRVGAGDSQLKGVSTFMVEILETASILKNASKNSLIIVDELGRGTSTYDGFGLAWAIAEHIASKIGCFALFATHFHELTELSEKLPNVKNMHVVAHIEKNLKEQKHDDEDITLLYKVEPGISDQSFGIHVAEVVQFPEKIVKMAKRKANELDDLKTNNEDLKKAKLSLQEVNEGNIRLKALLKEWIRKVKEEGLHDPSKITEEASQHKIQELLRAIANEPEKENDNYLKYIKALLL
T2 sequence (Q03834 whole entry, chain 2 of 2): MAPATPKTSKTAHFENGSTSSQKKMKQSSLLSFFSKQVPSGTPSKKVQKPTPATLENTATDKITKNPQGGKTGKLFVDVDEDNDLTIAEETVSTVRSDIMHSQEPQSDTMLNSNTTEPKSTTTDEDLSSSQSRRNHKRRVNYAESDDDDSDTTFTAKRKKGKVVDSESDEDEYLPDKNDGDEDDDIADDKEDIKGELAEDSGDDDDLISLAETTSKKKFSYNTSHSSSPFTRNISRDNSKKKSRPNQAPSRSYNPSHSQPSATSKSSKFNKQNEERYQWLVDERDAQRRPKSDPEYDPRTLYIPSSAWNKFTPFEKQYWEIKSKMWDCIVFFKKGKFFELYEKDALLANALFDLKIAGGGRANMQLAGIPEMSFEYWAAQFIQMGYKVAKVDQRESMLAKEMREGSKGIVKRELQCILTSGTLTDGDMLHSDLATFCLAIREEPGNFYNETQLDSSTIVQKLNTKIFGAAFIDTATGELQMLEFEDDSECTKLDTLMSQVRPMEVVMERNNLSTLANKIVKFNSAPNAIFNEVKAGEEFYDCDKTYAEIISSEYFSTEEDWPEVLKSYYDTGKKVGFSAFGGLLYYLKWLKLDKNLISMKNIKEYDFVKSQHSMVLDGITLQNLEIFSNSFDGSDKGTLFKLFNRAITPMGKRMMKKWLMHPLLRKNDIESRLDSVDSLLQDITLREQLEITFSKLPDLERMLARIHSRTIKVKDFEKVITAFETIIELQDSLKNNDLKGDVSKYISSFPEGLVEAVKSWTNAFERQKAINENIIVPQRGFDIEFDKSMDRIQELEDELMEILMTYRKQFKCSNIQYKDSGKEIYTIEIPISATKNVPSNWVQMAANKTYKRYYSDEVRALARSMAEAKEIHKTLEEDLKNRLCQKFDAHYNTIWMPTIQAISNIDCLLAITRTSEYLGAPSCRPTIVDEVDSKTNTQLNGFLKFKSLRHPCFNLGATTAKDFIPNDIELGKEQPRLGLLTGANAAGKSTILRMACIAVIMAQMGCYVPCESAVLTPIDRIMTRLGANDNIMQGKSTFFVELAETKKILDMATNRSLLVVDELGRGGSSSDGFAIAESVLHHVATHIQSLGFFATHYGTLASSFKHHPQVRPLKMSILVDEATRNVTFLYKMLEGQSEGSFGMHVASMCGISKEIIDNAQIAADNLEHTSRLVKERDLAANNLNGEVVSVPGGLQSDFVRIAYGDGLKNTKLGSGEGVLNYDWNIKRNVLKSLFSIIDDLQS
Chain of NHP6A;MSH2;MSH6 (P11632 whole entry, chain 1 of 3): as the sequence (P11632 whole entry) above
Chain of NHP6A;MSH2;MSH6 (P25847 whole entry, chain 2 of 3): as the sequence (P25847 whole entry, chain 1 of 2) above
Chain of NHP6A;MSH2;MSH6 (Q03834 whole entry, chain 3 of 3): as the sequence (Q03834 whole entry, chain 2 of 2) above
Chain of MSH2;MSH6 F337A (P25847 whole entry, chain 1 of 2): as the sequence (P25847 whole entry, chain 1 of 2) above
Chain of MSH2;MSH6 F337A (Q03834 whole entry F337A, chain 2 of 2): as the sequence (Q03834 whole entry, chain 2 of 2) above, with F337A counted along it

Binder | binding result (NHP6A [1]) | binding result (NHP6A [4]) | other results
B1 | binds |  | binding result (MSH2;MSH6 F337A): no binding; binding result (MSH2;MSH6 [2]): binds
B2 | binds |  | binding result (NHP6A;MSH2;MSH6): binds; binding result (MSH2;MSH6 [3]): binds
B3 |  | binds | 
B4 |  | binds | 
